Test results reported in publication PMC7496822 (Arthritis & Rheumatology (Hoboken, N.j.), 2020).

Key:
Assay in all cases: ELISA
SSA/Ro52 = SSA/Ro52 (Homo sapiens (assumed), UniProt P19474)
[1] = target: insulin from bovine pancreas (Bos taurus, UniProt P01317)
SSA/Ro60 = SSA/Ro60 (Homo sapiens (assumed), UniProt P10155)
actin from bovine muscle = actin from bovine muscle (Bos taurus, UniProt P68138)

Measured: binding result

Chain of insulin from bovine pancreas (P01317 whole entry, looked up): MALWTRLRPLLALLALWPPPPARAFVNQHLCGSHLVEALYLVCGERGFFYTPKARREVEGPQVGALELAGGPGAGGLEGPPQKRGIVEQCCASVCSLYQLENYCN
Chain of SSA/Ro52 (P19474 whole entry): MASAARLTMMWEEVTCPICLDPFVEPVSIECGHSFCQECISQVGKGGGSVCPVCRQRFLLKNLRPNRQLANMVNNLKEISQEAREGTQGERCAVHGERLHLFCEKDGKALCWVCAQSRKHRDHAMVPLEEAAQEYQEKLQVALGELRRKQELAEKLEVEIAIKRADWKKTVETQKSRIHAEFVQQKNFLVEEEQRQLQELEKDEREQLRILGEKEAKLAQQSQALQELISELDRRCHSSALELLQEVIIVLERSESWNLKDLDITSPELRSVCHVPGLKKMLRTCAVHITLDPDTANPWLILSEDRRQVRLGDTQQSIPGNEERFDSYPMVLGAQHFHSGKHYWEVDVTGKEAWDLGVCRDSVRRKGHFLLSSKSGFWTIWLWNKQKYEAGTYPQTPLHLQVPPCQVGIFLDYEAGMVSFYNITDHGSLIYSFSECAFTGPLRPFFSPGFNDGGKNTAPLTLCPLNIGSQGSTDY
Chain of SSA/Ro60 (P10155 whole entry): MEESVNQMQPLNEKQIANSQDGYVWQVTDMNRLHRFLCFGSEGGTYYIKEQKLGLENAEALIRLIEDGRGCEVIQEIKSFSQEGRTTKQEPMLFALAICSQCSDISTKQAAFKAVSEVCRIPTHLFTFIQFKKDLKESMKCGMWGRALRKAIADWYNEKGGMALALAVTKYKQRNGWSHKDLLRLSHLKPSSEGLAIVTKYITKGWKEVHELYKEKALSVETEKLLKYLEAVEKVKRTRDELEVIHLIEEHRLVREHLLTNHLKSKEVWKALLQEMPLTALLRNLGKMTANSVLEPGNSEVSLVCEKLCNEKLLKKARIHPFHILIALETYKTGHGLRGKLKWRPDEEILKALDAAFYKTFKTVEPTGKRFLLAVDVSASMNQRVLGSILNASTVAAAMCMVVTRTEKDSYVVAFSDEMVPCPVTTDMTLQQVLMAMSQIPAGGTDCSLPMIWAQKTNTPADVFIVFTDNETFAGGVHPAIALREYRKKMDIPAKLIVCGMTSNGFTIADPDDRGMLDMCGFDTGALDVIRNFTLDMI

B1: recombinant IgM of MALT lymphoma salivary gland sample M22 (antibody, V domains shown)
VH: QVQLVQSGAEVKKSGSSVKVSCKASGGTFNNYAINWVRQAPGQGLEWMGGIIPIFGTPNYAQKFQGRVAITADKSTGTAYMELSSLRSEDTAVYYCARGSNDYGDNVPVQPYHYWGQGTLVTVSS
VL: EIVLTQSPGTLSLSPGERATLSCRASQSISSTYLAWYQQKPGQAPRLLIYGASSRATGIPDRFSGSGSGTDFTLTISRLEPEDFAMYYCQQFGSSPQTFGQGTKLEIK
no binding (tested: up to 1 μg/ml IgM): all assays above

B2: recombinant IgM of MALT lymphoma salivary gland sample M5 (antibody, V domains shown)
VH: EVQLVESGGGLVQPGGSLRLSCAASGFTFSSYWMSWVRQAPGKGLEWVANIKEDGGGKYYVDSVKGRFTISRDNAKNSLYLQMNSLRVEDTAVYYCARGDFWSGDYIDAFDIWGQGTLVTVSS
VL: EIVMTQSPATLSVSPGERATLSCRASQSVSSNLAWYQQKPGQPPRLLIYGASTRATGIPARFSGGGSGTEFTLTISSLQSEDFALYYCQHYNNWPPWTFGQGTKVEIK
no binding (tested: up to 1 μg/ml IgM): all assays above

B3: recombinant IgM of MALT lymphoma salivary gland sample M11 (antibody, V domains shown)
VH: QVQLVQSGAEVKKPGSSVKVSCRASGGTFSRYAISWVRQAPGQGLEWMGGIIPLFNTPNYAQKFQGRVTIIADESTSTAYMELSSLRSDDTAVYYCAREGIAAAVNPFDYWGQGTLVTVSS
VL: not shown
no binding (tested: up to 1 μg/ml IgM): all assays above
